Earlier results in article PMC2921697.
pKd: −log10 of the molar value.

Key:
[1] = molecular target: Barnase (denatured) (Bacillus amyloliquefaciens) (UniProt P00648); experiment: H/D exchange NMR
[2] = molecular target: prion protein (denatured recombinant) (UniProt P04156)

Substance | pKd [1] | pKd [2]
GroEL (from UniProt P0A6F5) | 7.30 | 
Hsp60 (from UniProt P10809) |  | 8.82
SecB (from UniProt P0AG86) | 7.30 | 
